B1: Atp6v0d1.481: shRNA, SEQ ID NO: 93 (nucleic acid)
chain: TGCTGTTGACAGTGAGCGACACCAGCGTTCAATAGCTGAATAGTGAAGCCACAGATGTATTCAGCTATTGAACGCTGGTGCTGCCTACTGCCTCGGA
B2: Plod3.3138: shRNA, SEQ ID NO: 169 (nucleic acid)
chain: TGCTGTTGACAGTGAGCGACTCAGCCTCACTTTCAATAAATAGTGAAGCCACAGATGTATTTATTGAAAGTGAGGCTGAGGTGCCTACTGCCTCGGA
B3: F10.1044: shRNA, SEQ ID NO: 117 (nucleic acid)
chain: TGCTGTTGACAGTGAGCGACACCATCTTGAATGAGTTCTATAGTGAAGCCACAGATGTATAGAACTCATTCAAGATGGTGCTGCCTACTGCCTCGGA
B4: Gdi1.2355: shRNA, SEQ ID NO: 130 (nucleic acid)
chain: TGCTGTTGACAGTGAGCGACTCTAGTATATTTCACAGAAATAGTGAAGCCACAGATGTATTTCTGTGAAATATACTAGAGCTGCCTACTGCCTCGGA
B5: Flot2.1039: shRNA, SEQ ID NO: 120 (nucleic acid)
chain: TGCTGTTGACAGTGAGCGACAAGGTGACATCAGAAGTAAATAGTGAAGCCACAGATGTATTTACTTCTGATGTCACCTTGCTGCCTACTGCCTCGGA
B6: Slc15a3.1086: shRNA, SEQ ID NO: 180 (nucleic acid)
chain: TGCTGTTGACAGTGAGCGCCTGGTTCTATTGGAGCATCAATAGTGAAGCCACAGATGTATTGATGCTCCAATAGAACCAGTTGCCTACTGCCTCGGA
B7: Hpgd.1070: shRNA, SEQ ID NO: 132 (nucleic acid)
chain: TGCTGTTGACAGTGAGCGCAAACTAGGTTATAACCTATAATAGTGAAGCCACAGATGTATTATAGGTTATAACCTAGTTTTTGCCTACTGCCTCGGA
B8: Syt17.721: shRNA, SEQ ID NO: 184 (nucleic acid)
chain: TGCTGTTGACAGTGAGCGCCGAGGAGATCATGTCCAAGTATAGTGAAGCCACAGATGTATACTTGGACATGATCTCCTCGTTGCCTACTGCCTCGGA
B9: Cacna1f.3314: shRNA, SEQ ID NO: 99 (nucleic acid)
chain: TGCTGTTGACAGTGAGCGACTGGCCTGCGCTACTATACAATAGTGAAGCCACAGATGTATTGTATAGTAGCGCAGGCCAGCTGCCTACTGCCTCGGA
B10: Slc6a13.1196: shRNA, SEQ ID NO: 182 (nucleic acid)
chain: TGCTGTTGACAGTGAGCGACTGGGACTAGATAGCCAGTTTTAGTGAAGCCACAGATGTAAAACTGGCTATCTAGTCCCAGGTGCCTACTGCCTCGGA
B11: Gdi1.1120: shRNA, SEQ ID NO: 129 (nucleic acid)
chain: TGCTGTTGACAGTGAGCGCCAACAGGAAGTCAGACATCTATAGTGAAGCCACAGATGTATAGATGTCTGACTTCCTGTTGATGCCTACTGCCTCGGA
B12: Plcb2.3742: shRNA, SEQ ID NO: 167 (nucleic acid)
chain: TGCTGTTGACAGTGAGCGCAGGGACCTTAATACTCAGATATAGTGAAGCCACAGATGTATATCTGAGTATTAAGGTCCCTTTGCCTACTGCCTCGGA
B13: Slc12a5.3582: shRNA, SEQ ID NO: 179 (nucleic acid)
chain: TGCTGTTGACAGTGAGCGAAACGAGGTCATCGTGAATAAATAGTGAAGCCACAGATGTATTTATTCACGATGACCTCGTTCTGCCTACTGCCTCGGA
B14: Park2.2222: shRNA, SEQ ID NO: 158 (nucleic acid)
chain: TGCTGTTGACAGTGAGCGCAACAGAGAAAGTGCCTATAAATAGTGAAGCCACAGATGTATTTATAGGCACTTTCTCTGTTATGCCTACTGCCTCGGA
B15: Gab3.527: shRNA, SEQ ID NO: 125 (nucleic acid)
chain: TGCTGTTGACAGTGAGCGCGACGGAAACACTAATAGTGTATAGTGAAGCCACAGATGTATACACTATTAGTGTTTCCGTCATGCCTACTGCCTCGGA
B16: Plod3.2501: shRNA, SEQ ID NO: 168 (nucleic acid)
chain: TGCTGTTGACAGTGAGCGAACCGTTGATATCCACATGAAATAGTGAAGCCACAGATGTATTTCATGTGGATATCAACGGTGTGCCTACTGCCTCGGA
B17: Kcnh7.2642: shRNA, SEQ ID NO: 134 (nucleic acid)
chain: TGCTGTTGACAGTGAGCGCATGGTTCATCTTTATGCCAAATAGTGAAGCCACAGATGTATTTGGCATAAAGATGAACCATTTGCCTACTGCCTCGGA
B18: Vnn3.345: shRNA, SEQ ID NO: 189 (nucleic acid)
chain: TGCTGTTGACAGTGAGCGAACGCCAGAAGATGGAATCTATTAGTGAAGCCACAGATGTAATAGATTCCATCTTCTGGCGTCTGCCTACTGCCTCGGA
B19: Centa1.1387: shRNA, SEQ ID NO: 105 (nucleic acid)
chain: TGCTGTTGACAGTGAGCGCCAGAACCTCATTAAAGTTGAATAGTGAAGCCACAGATGTATTCAACTTTAATGAGGTTCTGATGCCTACTGCCTCGGA
B20: Ncf1.2370: shRNA, SEQ ID NO: 150 (nucleic acid)
chain: TGCTGTTGACAGTGAGCGCCAGAAGATCAATGCACATAAATAGTGAAGCCACAGATGTATTTATGTGCATTGATCTTCTGTTGCCTACTGCCTCGGA
B21: EG277089.605: shRNA, SEQ ID NO: 115 (nucleic acid)
chain: TGCTGTTGACAGTGAGCGCCTCAATCTCATTGGTGGCTTATAGTGAAGCCACAGATGTATAAGCCACCAATGAGATTGAGATGCCTACTGCCTCGGA
B22: Acsl1.3559: shRNA, SEQ ID NO: 88 (nucleic acid)
chain: TGCTGTTGACAGTGAGCGCCAGCATTTCACTTTACTGCAATAGTGAAGCCACAGATGTATTGCAGTAAAGTGAAATGCTGTTGCCTACTGCCTCGGA

One series deals with tet-on competent MLL/AF9+Nras AML. Put plainly: Pooled negative selection RNAi screening (deep sequencing). Format: cell-based, mouse. The note with it: deep sequencing reads, On Dox compared to T0. An excerpt: (§1) In addition to the analysis of single shRNAs for inhibitory effects in vitro and in vivo, the combination of tet-on competent cancer models and tet-regulatable shRNA expression vectors allowing for monitoring shRNA expression through fluorescent and other reporter genes (e.g. TRMPV and derivates) facilitates pooled shRNA negative selection screening (FIG. 37). In such approaches a pool of over 1,000 shRNAs are retrovirally transduced into tet-on competent cancer models (here MLL/AF9+Nras AML) and selected for shRNA containing cells by either drug selection (e.g. G418) or fluorescence-activated cell sorting (FACS). Selected cell populations harboring a library of shRNAs then can be cultured in the absence or presence of doxycyline (off dox and on dox, respectively) or injected into syngeneic recipient mice that are either treated with doxycyline or left untreated.
(§2) The representation of each shRNA within the pool can be effectively assessed by deep sequencing of shRNA cassettes in a given cell population. For this, genomic DNA is extracted from leukemia cells containing the shRNA pool, and the shRNA guide or passenger strand (21-22 target gene specific nucleotides of the shRNA) by PCR using primers specific for common sequences flanking the gene specific part of the shRNA (e.g. miR30 19 nt loop and miR30 common 3′ sequence). The primers also contain 5′-adapters required for deep sequencing (e.g. for Illumina/Solexa sequencing primers are p5+mir3: 5′-[…]-3′ (SEQ ID NO: 215) and p7+Loop: 5′-[…]-3′ (SEQ ID NO: 216)). Deep sequencing is subsequently performed using a primer binding the flanking nucleotide sequence next to the target gene specific part of the shRNA (for Illumina/Solexa platforms the primer is mir30EcoR1Seq: 5′-TAGCCCCTTGAATTCCGA GGCAGTAGGCA-3′ (SEQ ID NO: 217)).
(§3) The use of shRNA vectors that allow for monitoring of shRNA expression through fluorescent and other reporter genes (e.g. TRMPV) in combination with tet-on competent mouse models facilitates the isolation of pure shRNA expressing cell populations (e.g. by FACS, for TRMPV by sorting of Venus/dsRed double positive cells (FIG. 38). This selection of shRNA expressing cells prior to DNA isolation strongly reduces the background caused by cell populations with insufficient shRNA induction, which are predicted to contain genomic representation of the whole shRNA library without shRNA specific shifts in representation. The final readout is based on the comparison of shRNA representation (i.e. deep sequencing read numbers) before the assay (t0) or from cell populations left without doxycycline treatment (off dox) to those where shRNA were induced and cells subsequently sorted for shRNA expressing cells (on dox). shRNA with inhibitory effects are predicted to loose representation (show less reads) on dox compared to t0 and off dox.
(§4) This pooled is RNAi screening strategy can be applied to rapidly survey inhibitory effects of large pools of shRNAs (˜1000 at a time) in different tet-on competent cancer models and normal control cells (FIG. 39). For example, a pool of 1166 shRNAs targeting 836 predominantly druggable genes associated with MLL fusion proteins in human leukemia and mouse models of MLL/AF9-induced AML (MLL cure library) was analyzed in pooled negative selection screening in tet-on competent MLL/AF9+Nras AML and immortalized murine embryonic fibroblasts (Mef) in parallel. To establish and validate this screening approach, the pool also contained 64 control shRNAs each of which have been previously analyzed for inhibitory effects in both AML cells and Mefs using the same experimental system (FIG. 40).
(§5) After pooling of 1166 experimental and 64 control shRNAs the presence of shRNAs was verified by deep sequencing of shRNAs within the plasmid vector pool (FIG. 41). […]
With B1, the “Fold depletion in AML” value was found to be 12.03 Fold.

As to B2, the “Fold depletion in AML” value stood at 21.28 Fold.

On to B3, for which the “Fold depletion in AML” value amounted to 10.52 Fold.

Take B4: the “Fold depletion in AML” value came to 9.92 Fold.

For B5, the “Fold depletion in AML” value is 10.89 Fold.

On to B6, for which the “Fold depletion in AML” value was determined as 10.29 Fold.

Take B7: the “Fold depletion in AML” value came to 10.43 Fold.

Regarding B8, the “Fold depletion in AML” value came to 10.25 Fold.

Regarding B9, the “Fold depletion in AML” value is given as 12.52 Fold.

For B10, the “Fold depletion in AML” value is given as 9.77 Fold.

As to B11, the “Fold depletion in AML” value came to 24.81 Fold.

Take B12: the “Fold depletion in AML” value was 10.81 Fold.

Consider B13, for which the “Fold depletion in AML” value came out at 12.58 Fold.

As for B14, the “Fold depletion in AML” value turned out to be 11.36 Fold.

Turning to B15, the “Fold depletion in AML” value is reported as 10.22 Fold.

For B16, the “Fold depletion in AML” value stood at 12.30 Fold.

With B17, the “Fold depletion in AML” value is recorded as 10.58 Fold.

As to B18, the “Fold depletion in AML” value was determined as 10.19 Fold.

As to B19, the “Fold depletion in AML” value was 11.44 Fold.

As to B20, the “Fold depletion in AML” value was 10.06 Fold.

As for B21, the “Fold depletion in AML” value stood at 25.37 Fold.

Take B22: the “Fold depletion in AML” value came out at 10.18 Fold.

The subject of a further series is immortalized murine embryonic fibroblasts (Mef). The series is described as above. The conditions noted are these: deep sequencing reads, on dox compared to initial representation. The series is classed as cell-based.
Source text: as §1, §2, §3, §4, §5
For B1, the “Fold depletion in Mef” value is 1.90 Fold.

B2: the “Fold depletion in Mef” value was 0.71 Fold.

Take B3: the “Fold depletion in Mef” value stood at 1.25 Fold.

In the case of B4, the “Fold depletion in Mef” value was determined as 2.86 Fold.

On to B5, for which the “Fold depletion in Mef” value was found to be 2.72 Fold.

Consider B6, for which the “Fold depletion in Mef” value was 2.32 Fold.

As for B7, the “Fold depletion in Mef” value is given as 1.10 Fold.

Consider B8, for which the “Fold depletion in Mef” value is on record as 0.86 Fold.

Take B9: the “Fold depletion in Mef” value is recorded as 2.14 Fold.

With B10, the “Fold depletion in Mef” value is 1.52 Fold.

As for B11, the “Fold depletion in Mef” value amounted to 1.98 Fold.

B12: the “Fold depletion in Mef” value is 2.25 Fold.

For the molecule B13, the “Fold depletion in Mef” value turned out to be 2.21 Fold.

Turning to B14, the “Fold depletion in Mef” value stood at 1.32 Fold.

With B15, the “Fold depletion in Mef” value is on record as 0.46 Fold.

For B16, the “Fold depletion in Mef” value amounted to 2.62 Fold.

With B17, the “Fold depletion in Mef” value is 0.92 Fold.

With B18, the “Fold depletion in Mef” value is given as 2.59 Fold.

For the molecule B19, the “Fold depletion in Mef” value is reported as 0.77 Fold.

For the molecule B20, the “Fold depletion in Mef” value is listed as 2.33 Fold.

Take B21: the “Fold depletion in Mef” value worked out at 2.02 Fold.

Take B22: the “Fold depletion in Mef” value was 1.45 Fold.
